First the molecules themselves.
B2: Recombinant rat EfnB1-FC (Fc fusion)
chain: ATPLAKNLEPVSWSSLNPKFLSGKGLVIYPKIGDKLDIICPRAEAGRPYEYYKLYLVRPEQAAACSTVLDPNVLVTCNKPQQEIRFTIKFQEFSPNYMGLEFKKYHDYYITSTSNGSLEGLENREGGVCRTRTMKIVMKVGQDPNAVTPEQLTTSRPSKESDNTVKTATQAPGRGSQGDSDGKHETVNQQEKSGPGAGGSGSGDTDSFFNSK

Series [1] concerns the molecule itself. The experiment in a line: single molecule AFM force measurement.
The target in series [2] is B2. Nature of the series: single molecule AFM force measurement.

We go through three molecules from article doi:10.1101/2020.05.08.084889 (bioRxiv, 2020).

B1: Desmocollin-3 complete extracellular region, biotinylated (Dsc3-ATH) (domain or fragment)
chain: RWAPIPCSMQENSLGPFPLFLQQVESDAAQNYTVFYSISGRGVDKEPLNLFYIERDTGNLFCTRPVDREEYDVFDLIAYASTADGYSADLPLPLPIRVEDENDNHPVFTEAIYNFEVLESSRPGTTVGVVCATDRDEPDTMHTRLKYSILQQTPRSPGLFSVHPSTGVITTVSHYLDREVVDKYSLIMKVQDMDGQFFGLIGTSTCIITVTDSNDNAPTFRQNAYEAFVEENAFNVEILRIPIEDKDLINTANWRVNFTILKGNENGHFKISTDKETNEGVLSVVKPLNYEENRQVNLEIGVNNEAPFARDIPRVTALNRALVTVHVRDLDEGPECTPAAQYVRIKENLAVGSKINGYKAYDPENRNGNGLRYKKLHDPKGWITIDEISGSIITSKILDREVETPKNELYNITVLAIDKDDRSCTGTLAVNIEDVNDNPPEILQEYVVICKPKMGYTDILAVDPDEPVHGAPFYFSLPNTSPEISRLWSLTKVNDTAARLSYQKNAGFQEYTIPITVKDRAGQAATKLLRVNLCECTHPTQCRATSRSTGVILGK
modifications: biotin on the Avi-tag (BirA enzyme)
As to B1, the binding result in series [1] was “binds”. For B2, in series [1], the binding result is “binds”.

B3: E-cadherin complete extracellular region, biotinylated (Ecad-ATH) (domain or fragment)
chain: DWVIPPISCPENEKGPFPKNLVQIKSNRDKEIKVFYSITGQGADAPPVGVFIIERETGWLKVTEPLDREQIAKYILYSHAVSSNGNAVEDPMEIVITVTDQNDNKPEFTQAVFQGSVTEGALPGTSVMQVTATDADDDVNTYNAAIAYSILTQDPLLPSSMMFTINKDTGVISVLTTGLDREGVPMYTLVVQAADLQGEGLTTTATAVITVTDINDNPPIFNPTTYQGRVPENKANVEIAVLKVTDADVPDTPAWRAVYTILNNNNDQFVVTTDPVTNDGILKTTKGLDFEDKQQYVLYVTVVNVTPFEVILSTSTATVTVDVEDVNEAPIFIPCPKVVSIPEDFGVGQEITSYTAEDPDTYMEQRITYRIWRDAAGWLEVNPESGAIFTRAELDREDFEHVKNSTYEALIIAIDNGSPVATGTGTLLLVLSDVNDNGPIPEPRNMDFCQKNPQPHVINIIDPDLPPNTSPFTAELTHGASVNWTIEYNDPARESLILKPKKTLELGDYKINLKLTDNQNKDQVTTLDVFVCDCEGVVNSCKRTAPYAEAGLQVPA
modifications: biotin on the Avi-tag (BirA enzyme)
On to B3, for which, in series [2], the “fold of heterophilic binding over EfnB1 homophilic binding” value was about 3 fold.
